According to patent US11325966:

Columns and labels:
Test in all cases: cell-based or functional assay
[1] = target: HIV-1 Env of pseudovirus 0815.v3.c3 (HIV-1)
[2] = target: HIV-1 Env of pseudovirus 1012_11_TC21_3257 (HIV-1)
[3] = target: HIV-1 Env of pseudovirus 191821_E6_1 (HIV-1)
[4] = target: HIV-1 Env of pseudovirus 191955_A11 (HIV-1)
[5] = target: HIV-1 Env of pseudovirus 231965.c01 (HIV-1)
[6] = target: HIV-1 Env of pseudovirus 246F C1G (HIV-1)
[7] = target: HIV-1 Env of pseudovirus 3016.v5.c45 (HIV-1)
[8] = target: HIV-1 Env of pseudovirus 62357_14_D3_4589 (HIV-1)
[9] = target: HIV-1 Env of pseudovirus 6535.3 (HIV-1)
[10] = target: HIV-1 Env of pseudovirus 6952.v1.c20 (HIV-1)
[11] = target: HIV-1 Env of pseudovirus 7030102001E5(Rev-) (HIV-1)
[12] = target: HIV-1 Env of pseudovirus 9004SS_A3_4 (HIV-1)
[13] = target: HIV-1 Env of pseudovirus AC10.0.29 (HIV-1)
[14] = target: HIV-1 Env of pseudovirus BF1266.431a (HIV-1)
[15] = target: HIV-1 Env of pseudovirus BJOX009000.02.4 (HIV-1)
[16] = target: HIV-1 Env of pseudovirus BJOX010000.06.2 (HIV-1)
[17] = target: HIV-1 Env of pseudovirus C1080.c03 (HIV-1)
[18] = target: HIV-1 Env of pseudovirus C3347.c11 (HIV-1)
[19] = target: HIV-1 Env of pseudovirus CAAN5342.A2 (HIV-1)
[20] = target: HIV-1 Env of pseudovirus Ce1176_A3 (HIV-1)
[21] = target: HIV-1 Env of pseudovirus Ce2010_F5 (HIV-1)
[22] = target: HIV-1 Env of pseudovirus Ce703010054_2A2 (HIV-1)
[23] = target: HIV-1 Env of pseudovirus Du422.1 (HIV-1)
[24] = target: HIV-1 Env of pseudovirus HIV-001428-2.42 (HIV-1)
[25] = target: HIV-1 Env of pseudovirus MS208.A1 (HIV-1)
[26] = target: HIV-1 Env of pseudovirus Q769.d22 (HIV-1)
[27] = target: HIV-1 Env of pseudovirus Q842.d12 (HIV-1)
[28] = target: HIV-1 Env of pseudovirus QH0692.42 (HIV-1)
[29] = target: HIV-1 Env of pseudovirus R2184.c04 (HIV-1)
[30] = target: HIV-1 Env of pseudovirus R3265.c06 (HIV-1)
[31] = target: HIV-1 Env of pseudovirus SC422661.8 (HIV-1)
[32] = target: HIV-1 Env of pseudovirus T250-4 (HIV-1)
[33] = target: HIV-1 Env of pseudovirus T251-18 (HIV-1)
[34] = target: HIV-1 Env of pseudovirus X1193_c1 (HIV-1)
[35] = target: HIV-1 Env of pseudovirus X1632_S2_B10 (HIV-1)
[36] = target: HIV-1 Env of pseudovirus X2131_C1_B5 (HIV-1)
[37] = target: HIV-1 Env of pseudovirus ZM109F.PB4 (HIV-1)
[38] = target: HIV-1 Env of pseudovirus ZM135M.PE10a (HIV-1)
[39] = target: HIV-1 Env of pseudovirus ZM197M.PB7 (HIV-1)

B1: 10-1074 (antibody, V domains shown)
VH: QVQLQESGPGLVKPSETLSVTCSVSGDSMNNYYWTWIRQSPGKGLEWIGYISDRESATYNPSLNSRVVISRDTSKNQLSLKLNSVTPADTAVYYCATARRGQRIYGVVSFGEFFYYYSMDVWGKGTTVTVSS
VL: SYVRPLSVALGETARISCGRQALGSRAVQWYQHRPGQAPILLIYNNQDRPSGIPERFSGTPDINFGTRATLTISGVEAGDEADYYCHMWDSRSGFSWSFGGATRLTVL
IC50 in TZM-bl assay [1]: 0.043 µg/mL | IC80 in TZM-bl assay [1]: 0.197 µg/mL | IC50 in TZM-bl assay [2]: 0.011 µg/mL | IC80 in TZM-bl assay [2]: 0.047 µg/mL | IC50 in TZM-bl assay [3]: > 10 µg/mL | IC80 in TZM-bl assay [3]: > 10 µg/mL | IC50 in TZM-bl assay [4]: > 10 µg/mL | IC80 in TZM-bl assay [4]: > 10 µg/mL | IC50 in TZM-bl assay [5]: > 10 µg/mL | IC80 in TZM-bl assay [5]: > 10 µg/mL | IC50 in TZM-bl assay [6]: 0.035 µg/mL | IC80 in TZM-bl assay [6]: 0.119 µg/mL | IC50 in TZM-bl assay [7]: > 10 µg/mL | IC80 in TZM-bl assay [7]: > 10 µg/mL | IC50 in TZM-bl assay [8]: > 10 µg/mL | IC80 in TZM-bl assay [8]: > 10 µg/mL | IC50 in TZM-bl assay [9]: 0.007 µg/mL | IC80 in TZM-bl assay [9]: 0.022 µg/mL | IC50 in TZM-bl assay [10]: 0.023 µg/mL | IC80 in TZM-bl assay [10]: 0.086 µg/mL | IC50 in TZM-bl assay [11]: 0.009 µg/mL | IC80 in TZM-bl assay [11]: 0.019 µg/mL | IC50 in TZM-bl assay [12]: 0.012 µg/mL | IC80 in TZM-bl assay [12]: 0.032 µg/mL | IC50 in TZM-bl assay [13]: 0.015 µg/mL | IC80 in TZM-bl assay [13]: 0.043 µg/mL | IC50 in TZM-bl assay [14]: > 10 µg/mL | IC80 in TZM-bl assay [14]: > 10 µg/mL | IC50 in TZM-bl assay [15]: > 10 µg/mL | IC80 in TZM-bl assay [15]: > 10 µg/mL | IC50 in TZM-bl assay [16]: > 10 µg/mL | IC80 in TZM-bl assay [16]: > 10 µg/mL | IC50 in TZM-bl assay [17]: > 10 µg/mL | IC80 in TZM-bl assay [17]: > 10 µg/mL | IC50 in TZM-bl assay [18]: > 10 µg/mL | IC80 in TZM-bl assay [18]: > 10 µg/mL | IC50 in TZM-bl assay [19]: 0.005 µg/mL | IC80 in TZM-bl assay [19]: 0.019 µg/mL | IC50 in TZM-bl assay [20]: 0.022 µg/mL | IC80 in TZM-bl assay [20]: 0.07 µg/mL | IC50 in TZM-bl assay [21]: > 10 µg/mL | IC80 in TZM-bl assay [21]: > 10 µg/mL | IC50 in TZM-bl assay [22]: > 10 µg/mL | IC80 in TZM-bl assay [22]: > 10 µg/mL | IC50 in TZM-bl assay [23]: 0.047 µg/mL | IC80 in TZM-bl assay [23]: 0.113 µg/mL | IC50 in TZM-bl assay [24]: 0.035 µg/mL | IC80 in TZM-bl assay [24]: 0.126 µg/mL | IC50 in TZM-bl assay [25]: > 10 µg/mL | IC80 in TZM-bl assay [25]: > 10 µg/mL | IC50 in TZM-bl assay [26]: > 10 µg/mL | IC80 in TZM-bl assay [26]: > 10 µg/mL | IC50 in TZM-bl assay [27]: > 10 µg/mL | IC80 in TZM-bl assay [27]: > 10 µg/mL | IC50 in TZM-bl assay [28]: 0.106 µg/mL | IC80 in TZM-bl assay [28]: 0.383 µg/mL | IC50 in TZM-bl assay [29]: > 10 µg/mL | IC80 in TZM-bl assay [29]: > 10 µg/mL | IC50 in TZM-bl assay [30]: > 10 µg/mL | IC80 in TZM-bl assay [30]: > 10 µg/mL | IC50 in TZM-bl assay [31]: 0.058 µg/mL | IC80 in TZM-bl assay [31]: 0.368 µg/mL | IC50 in TZM-bl assay [32]: 0.002 µg/mL | IC80 in TZM-bl assay [32]: 0.005 µg/mL | IC50 in TZM-bl assay [33]: 0.399 µg/mL | IC80 in TZM-bl assay [33]: 2.29 µg/mL | IC50 in TZM-bl assay [34]: 0.07 µg/mL | IC80 in TZM-bl assay [34]: 0.207 µg/mL | IC50 in TZM-bl assay [35]: > 10 µg/mL | IC80 in TZM-bl assay [35]: > 10 µg/mL | IC50 in TZM-bl assay [36]: 0.014 µg/mL | IC80 in TZM-bl assay [36]: 0.056 µg/mL | IC50 in TZM-bl assay [37]: > 10 µg/mL | IC80 in TZM-bl assay [37]: > 10 µg/mL | IC50 in TZM-bl assay [38]: 0.061 µg/mL | IC80 in TZM-bl assay [38]: 0.263 µg/mL | IC50 in TZM-bl assay [39]: > 10 µg/mL | IC80 in TZM-bl assay [39]: > 10 µg/mL
